Experimental data from article PMC4658667.

Experiments:
[1] = molecular target: CdiI^Nlact immunity protein from Neisseria lactamica ATCC 23970, His6-tagged (Neisseria lactamica ATCC 23970); assay: BLI
[2] = molecular target: CdiIo11^EC869 immunity protein from Escherichia coli EC869, His6-tagged (Escherichia coli EC869); assay: BLI

Row | Substance | Kd [1] [µM] | Kd [2] [µM]
1 | CdiA-CTo11^EC869, orphan-11 CdiA-CT toxin from Escherichia coli EC869 (domain or fragment) | 82 | 
2 | CdiA-CTo11^EC869/Δβ4β5, CdiA-CTo11^EC869 with the β-hairpin (Lys242–Thr252) replaced by a Gly-Ser-Gly linker (domain or fragment) |  | > 300
